Experimental findings from article PMC7269092 are described below.

Broadly, the IC50 is the midpoint of a concentration-inhibition curve.

The assay concerns the target NLuc-NS2B-E66stop (DENV2). Briefly: split reporter.

In turn, “MBP-NS3 (from UniProt P29990 1476-2093) (enzyme)” returned a half-maximal inhibitory concentration (IC50) of 2.5 µM. This counts as single-digit micromolar.
